In PMC4797267, “The CSB chromatin remodeler and CTCF architectural protein cooperate in response to oxidative stress”:

Target: T1, MBP-CTCF (zinc fingers 1-11) (UniProt P49711 269-579)
T1 sequence: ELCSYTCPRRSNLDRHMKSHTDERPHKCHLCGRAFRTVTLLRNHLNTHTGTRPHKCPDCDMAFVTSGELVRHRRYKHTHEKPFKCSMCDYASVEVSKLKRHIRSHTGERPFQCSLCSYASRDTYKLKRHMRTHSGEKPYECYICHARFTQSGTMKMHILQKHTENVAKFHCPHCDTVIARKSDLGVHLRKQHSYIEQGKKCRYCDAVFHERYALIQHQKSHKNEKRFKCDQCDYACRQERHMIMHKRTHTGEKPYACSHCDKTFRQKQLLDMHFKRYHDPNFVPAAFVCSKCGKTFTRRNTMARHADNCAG
Experiment: EMSA; 100 uM ZnSO4, 6 mM Mg2+; no CSB; 30 mM HEPES pH 7.9, 60 mM NaCl, 6% glycerol, 6 mM MgCl2, 100 uM ZnSO4, 0.02% NP40, 30 C 10 min; 1 nM DNA; 5% native PAGE, 0.5x TBE
Conditions: protein: recombinant; tags: MBP; label: 32P (body label, PCR with 32P-dATP); blunt

B1: 200 bp DNA fragment with CTCF-binding site (Fig. S4B) (dsDNA)
DNA 1: CACACCGAGTTCATCCCTTATGTGATGGACCCTCCACGAGGGGGCCCTGGAGAATCCCGGTGCCGAGGCTGCAGAATTGGTCGTAGACAGCTCTAGCACCGCTTAAACGCACGTACGCGCTGTCCCCCGCGTTTTAACCGCCAAGGGGATTACTCCCTAGTCTCCAGGCACGTGTCAGATATATACATCCTGT
DNA 2: ACAGGATGTATATATCTGACACGTGCCTGGAGACTAGGGAGTAATCCCCTTGGCGGTTAAAACGCGGGGGACAGCGCGTACGTGCGTTTAAGCGGTGCTAGAGCTGTCTACGACCAATTCTGCAGCCTCGGCACCGGGATTCTCCAGGGCCCCCTCGTGGAGGGTCCATCACATAAGGGATGAACTCGGTGTG
B1: binds.
